Test results: patent publication US20080293631

Target: T1, endothelial protein C receptor (UniProt Q9UNN8)
T1 sequence: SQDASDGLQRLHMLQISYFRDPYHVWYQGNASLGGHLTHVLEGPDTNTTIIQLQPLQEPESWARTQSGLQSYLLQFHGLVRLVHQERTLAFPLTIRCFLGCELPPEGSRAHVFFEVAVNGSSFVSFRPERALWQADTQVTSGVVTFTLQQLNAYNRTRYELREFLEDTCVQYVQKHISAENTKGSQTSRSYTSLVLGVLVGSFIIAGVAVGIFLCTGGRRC

For Activated protein C, the “LPS-induced NF-κB activity (western blot for the active form of NF-κB in lysates of RA monocytes)” value was “APC's inhibitory effect on LPS-induced NF-κB activity was almost totally reversed by RCR252, whereas RCR92 had only limited effect”.
